Test [1] has as its target T1, F-actin (rabbit skeletal muscle actin, polymerized) (rabbit), P68135. The test can be described thus: co-sedimentation; F-actin co-sedimentation, conditions B2 (PIPES pH 6.8, 100 mM NaCl); fixed 6 μM myotilin fragment in 20 μl mixed with pre-polymerized F-actin (0 to 60 μM) in 20 μl; one site-specific binding fit; apparent Kd. As to conditions: remark: other sources report otherwise.

The target in test [2] is F-actin (rabbit skeletal muscle actin, polymerized), P68135. In words: F-actin co-sedimentation assay. To be noted: chain shown with the change; for response: 8 μM protein, percentage of theoretical total binding (100%), parent: est. 95, read off a plot.
Test [3] concerns the target T1, F-actin (rabbit skeletal muscle actin, …). In words: co-sedimentation; F-actin co-sedimentation, conditions B1 (HEPES pH 7.4); fixed 16 μM myotilin construct in 20 μl mixed with pre-polymerized F-actin (0–120 μM) in 20 μl; room temperature 30 min, 125,000 × g; densitometry, one site-specific binding fit; apparent Kd. As to conditions: remark: other sources report otherwise.

Substitutions are numbered along the chain they refer to. Names and notes keep the numbering of the source.

B1: Full-length myotilin with N-terminal thioredoxin tag (Trx-MYOT), Q9UBF9 1-498 (natural protein)
chain: MFNYERPKHFIQSQNPCGSRLQPPGPETSSFSSQTKQSSIIIQPRQCTEQRFSASSTLSSHITMSSSAFPASPQQHAGSNPGQRVTTTYNQSPASFLSSILPSQPDYNSSKIPSAMDSNYQQSSAGQPINAKPSQTANAKPIPRTPDHEIQGSKEALIQDLERKLKCKDTLLHNGNQRLTYEEKMARRLLGPQNAAAVFQAQDDSGAQDSQQHNSEHARLQVPTSQVRSRSTSRGDVNDQDAIQEKFYPPRFIQVPENMSIDEGRFCRMDFKVSGLPAPDVSWYLNGRTVQSDDLHKMIVSEKGLHSLIFEVVRASDAGAYACVAKNRAGEATFTVQLDVLAKEHKRAPMFIYKPQSKKVLEGDSVKLECQISAIPPPKLFWKRNNEMVQFNTDRISLYQDNTGRVTLLIKDVNKKDAGWYTVSAVNEAGVTTCNTRLDVTARPNQTLPAPKQLRVRPTFSKYLALNGKGLNVKQAFNPEGEFQRLAAQSGLYESEEL
B1: in test [1], the Kd is 0.29 µM.

B2: Myotilin Ig1Ig2^250–444 (Ig1Ig2 tandem), Q9UBF9 K359A (protein)
chain: PRFIQVPENMSIDEGRFCRMDFKVSGLPAPDVSWYLNGRTVQSDDLHKMIVSEKGLHSLIFEVVRASDAGAYACVAKNRAGEATFTVQLDVLAKEHKRAPMFIYKPQSKAVLEGDSVKLECQISAIPPPKLFWKRNNEMVQFNTDRISLYQDNTGRVTLLIKDVNKKDAGWYTVSAVNEAGVTTCNTRLDVTARP
For the molecule B2, the response in test [2] worked out at 72 % bound.

B3: Myotilin Ig1Ig2^250–444 (Ig1Ig2 tandem), Q9UBF9 250-444 (domain or fragment)
chain: B2 chain with A110K
Regarding B3, the Kd in test [3] is 9.2 µM; in test [1], 12.9 µM.

B4: Myotilin Ig1Ig2^250–444 (Ig1Ig2 tandem), Q9UBF9 K358A (protein)
chain: B2 chain with K109A, A110K
Consider B4, for which the response in test [2] amounted to 80 % bound.

B5: Myotilin Ig1Ig2^250–444 (Ig1Ig2 tandem), Q9UBF9 K354A (protein)
chain: B2 chain with K105A, A110K
Regarding B5, the response in test [2] was 55 % bound.

B6: Myotilin Ig1Ig2^250–444 (Ig1Ig2 tandem), Q9UBF9 Q356A (protein)
chain: B2 chain with Q107A, A110K
Regarding B6, the response in test [2] was found to be 94 % bound.

B7: Myotilin Ig1Ig2^250–444 (Ig1Ig2 tandem), Q9UBF9 K367A (protein)
chain: B2 chain with A110K, K118A
Regarding B7, the response in test [2] turned out to be 87 % bound.

B8: Myotilin Ig1Ig2^250–444 (Ig1Ig2 tandem), Q9UBF9 K354A; K359A (protein)
chain: B2 chain with K105A
For the molecule B8, in test [2], the response worked out at 42 % bound.

B9: Myotilin Ig1Ig2^250–444 (Ig1Ig2 tandem), Q9UBF9 K411A (protein)
chain: B2 chain with A110K, K162A
For the molecule B9, the response in test [2] turned out to be 87 % bound.

B10: Myotilin Ig1Ig2^250–444 (Ig1Ig2 tandem), Q9UBF9 R405K (protein)
chain: B2 chain with A110K, R156K
Take B10: the Kd in test [2] (B1 conditions (asterisk)) came to 7.5 µM.

For the origin of these results see PMC8062120.
